Assay: RP-HPLC insulin percent purity
Format: physicochemical
Description: Apparent solubility was measured as the percent insulin recovery as compared to the initial formulations/conditions.
To determine the apparent solubility, the peak area of insulin/insulin analog main peak and desamido peak were integrated and combined together to calculate the percentage relative to the standards. […] The data were processed using Design-Expert® 7.0 (StatEase) and the “historical data” feature. Insulin percent purity was expressed as the percent of main insulin versus all insulin species.

Regular Insulin: mature human insulin, SEQ ID NOS: 103 and 104
Percent of insulin main peak (50 mM NaCl, pH 7.0, 0 months at 2-8° C.): 97.64% | Percent of insulin main peak (50 mM NaCl, pH 7.0, 0.25 months at 2-8° C.): 97.59% | Percent of insulin main peak (50 mM NaCl, pH 7.0, 0.5 months at 2-8° C.): 97.50% | Percent of insulin main peak (50 mM NaCl, pH 7.0, 1 month at 2-8° C.): 97.44% | Percent of insulin main peak (50 mM NaCl, pH 7.0, 3 months at 2-8° C.): 97.24% | Percent of insulin main peak (50 mM NaCl, pH 7.0, 5 months at 2-8° C.): 97.73% | Percent of insulin main peak (50 mM NaCl, pH 7.0, 9 months at 2-8° C.): 97.20% | Percent of insulin main peak (50 mM NaCl, pH 7.2, 0 months at 2-8° C.): 97.64% | Percent of insulin main peak (50 mM NaCl, pH 7.2, 0.25 months at 2-8° C.): 97.59% | Percent of insulin main peak (50 mM NaCl, pH 7.2, 0.5 months at 2-8° C.): 97.56% | Percent of insulin main peak (50 mM NaCl, pH 7.2, 1 month at 2-8° C.): 97.46% | Percent of insulin main peak (50 mM NaCl, pH 7.2, 3 months at 2-8° C.): 97.47% | Percent of insulin main peak (50 mM NaCl, pH 7.2, 5 months at 2-8° C.): 97.75% | Percent of insulin main peak (50 mM NaCl, pH 7.2, 9 months at 2-8° C.): 97.27% | Percent of insulin main peak (50 mM NaCl, pH 7.4, 0 months at 2-8° C.): 97.58% | Percent of insulin main peak (50 mM NaCl, pH 7.4, 0.25 months at 2-8° C.): 97.54% | Percent of insulin main peak (50 mM NaCl, pH 7.4, 0.5 months at 2-8° C.): 97.48% | Percent of insulin main peak (50 mM NaCl, pH 7.4, 1 month at 2-8° C.): 97.47% | Percent of insulin main peak (50 mM NaCl, pH 7.4, 3 months at 2-8° C.): 97.45% | Percent of insulin main peak (50 mM NaCl, pH 7.4, 5 months at 2-8° C.): 97.74% | Percent of insulin main peak (50 mM NaCl, pH 7.4, 9 months at 2-8° C.): 97.27% | Percent of insulin main peak (50 mM NaCl, pH 7.6, 0 months at 2-8° C.): 97.65% | Percent of insulin main peak (50 mM NaCl, pH 7.6, 0.25 months at 2-8° C.): 97.58% | Percent of insulin main peak (50 mM NaCl, pH 7.6, 0.5 months at 2-8° C.): 97.33% | Percent of insulin main peak (50 mM NaCl, pH 7.6, 1 month at 2-8° C.): 97.44% | Percent of insulin main peak (50 mM NaCl, pH 7.6, 3 months at 2-8° C.): 97.35% | Percent of insulin main peak (50 mM NaCl, pH 7.6, 5 months at 2-8° C.): 97.66% | Percent of insulin main peak (50 mM NaCl, pH 7.6, 9 months at 2-8° C.): 97.34% | Percent of insulin main peak (80 mM NaCl, pH 7.0, 0 months at 2-8° C.): 97.65% | Percent of insulin main peak (80 mM NaCl, pH 7.0, 0.25 months at 2-8° C.): 97.50% | Percent of insulin main peak (80 mM NaCl, pH 7.0, 0.5 months at 2-8° C.): 97.30% | Percent of insulin main peak (80 mM NaCl, pH 7.0, 1 month at 2-8° C.): 97.20% | Percent of insulin main peak (80 mM NaCl, pH 7.0, 5 months at 2-8° C.): 97.81% | Percent of insulin main peak (80 mM NaCl, pH 7.0, 9 months at 2-8° C.): 96.18% | Percent of insulin main peak (80 mM NaCl, pH 7.2, 0 months at 2-8° C.): 97.57% | Percent of insulin main peak (80 mM NaCl, pH 7.2, 0.25 months at 2-8° C.): 97.59% | Percent of insulin main peak (80 mM NaCl, pH 7.2, 0.5 months at 2-8° C.): 97.30% | Percent of insulin main peak (80 mM NaCl, pH 7.2, 1 month at 2-8° C.): 97.45% | Percent of insulin main peak (80 mM NaCl, pH 7.2, 3 months at 2-8° C.): 97.34% | Percent of insulin main peak (80 mM NaCl, pH 7.2, 5 months at 2-8° C.): 97.64% | Percent of insulin main peak (80 mM NaCl, pH 7.4, 0 months at 2-8° C.): 97.56% | Percent of insulin main peak (80 mM NaCl, pH 7.4, 0.25 months at 2-8° C.): 97.61% | Percent of insulin main peak (80 mM NaCl, pH 7.4, 0.5 months at 2-8° C.): 97.51% | Percent of insulin main peak (80 mM NaCl, pH 7.4, 1 month at 2-8° C.): 97.43% | Percent of insulin main peak (80 mM NaCl, pH 7.4, 3 months at 2-8° C.): 97.43% | Percent of insulin main peak (80 mM NaCl, pH 7.4, 5 months at 2-8° C.): 97.75% | Percent of insulin main peak (80 mM NaCl, pH 7.4, 9 months at 2-8° C.): 97.29% | Percent of insulin main peak (80 mM NaCl, pH 7.6, 0 months at 2-8° C.): 97.63% | Percent of insulin main peak (80 mM NaCl, pH 7.6, 0.25 months at 2-8° C.): 97.62% | Percent of insulin main peak (80 mM NaCl, pH 7.6, 0.5 months at 2-8° C.): 97.52% | Percent of insulin main peak (80 mM NaCl, pH 7.6, 1 month at 2-8° C.): 97.37% | Percent of insulin main peak (80 mM NaCl, pH 7.6, 3 months at 2-8° C.): 97.64% | Percent of insulin main peak (80 mM NaCl, pH 7.6, 5 months at 2-8° C.): 97.67% | Percent of insulin main peak (80 mM NaCl, pH 7.6, 9 months at 2-8° C.): 97.31% | Percent of insulin main peak (110 mM NaCl, pH 7.0, 0 months at 2-8° C.): 97.64% | Percent of insulin main peak (110 mM NaCl, pH 7.0, 0.25 months at 2-8° C.): 97.31% | Percent of insulin main peak (110 mM NaCl, pH 7.0, 0.5 months at 2-8° C.): 97.57% | Percent of insulin main peak (110 mM NaCl, pH 7.0, 1 month at 2-8° C.): 96.64% | Percent of insulin main peak (110 mM NaCl, pH 7.0, 3 months at 2-8° C.): 96.10% | Percent of insulin main peak (110 mM NaCl, pH 7.0, 5 months at 2-8° C.): 97.79% | Percent of insulin main peak (110 mM NaCl, pH 7.2, 0 months at 2-8° C.): 97.62% | Percent of insulin main peak (110 mM NaCl, pH 7.2, 0.25 months at 2-8° C.): 97.46% | Percent of insulin main peak (110 mM NaCl, pH 7.2, 0.5 months at 2-8° C.): 97.35% | Percent of insulin main peak (110 mM NaCl, pH 7.2, 3 months at 2-8° C.): 97.49% | Percent of insulin main peak (110 mM NaCl, pH 7.2, 5 months at 2-8° C.): 97.61% | Percent of insulin main peak (110 mM NaCl, pH 7.2, 9 months at 2-8° C.): 95.91% | Percent of insulin main peak (110 mM NaCl, pH 7.4, 0 months at 2-8° C.): 97.65% | Percent of insulin main peak (110 mM NaCl, pH 7.4, 0.25 months at 2-8° C.): 97.58% | Percent of insulin main peak (110 mM NaCl, pH 7.4, 0.5 months at 2-8° C.): 97.39% | Percent of insulin main peak (110 mM NaCl, pH 7.4, 1 month at 2-8° C.): 97.36% | Percent of insulin main peak (110 mM NaCl, pH 7.4, 3 months at 2-8° C.): 97.36% | Percent of insulin main peak (110 mM NaCl, pH 7.4, 5 months at 2-8° C.): 97.79% | Percent of insulin main peak (110 mM NaCl, pH 7.4, 9 months at 2-8° C.): 96.91% | Percent of insulin main peak (110 mM NaCl, pH 7.6, 0 months at 2-8° C.): 97.58% | Percent of insulin main peak (110 mM NaCl, pH 7.6, 0.25 months at 2-8° C.): 97.57% | Percent of insulin main peak (110 mM NaCl, pH 7.6, 0.5 months at 2-8° C.): 97.60% | Percent of insulin main peak (110 mM NaCl, pH 7.6, 1 month at 2-8° C.): 97.52% | Percent of insulin main peak (110 mM NaCl, pH 7.6, 3 months at 2-8° C.): 97.42% | Percent of insulin main peak (110 mM NaCl, pH 7.6, 5 months at 2-8° C.): 97.61% | Percent of insulin main peak (110 mM NaCl, pH 7.6, 9 months at 2-8° C.): 97.31% | Percent of insulin main peak (140 mM NaCl, pH 7.0, 0 months at 2-8° C.): 97.65% | Percent of insulin main peak (140 mM NaCl, pH 7.0, 0.25 months at 2-8° C.): 97.15% | Percent of insulin main peak (140 mM NaCl, pH 7.0, 1 month at 2-8° C.): 96.39% | Percent of insulin main peak (140 mM NaCl, pH 7.0, 3 months at 2-8° C.): 96.16% | Percent of insulin main peak (140 mM NaCl, pH 7.0, 9 months at 2-8° C.): 95.17% | Percent of insulin main peak (140 mM NaCl, pH 7.2, 0 months at 2-8° C.): 97.56% | Percent of insulin main peak (140 mM NaCl, pH 7.2, 0.25 months at 2-8° C.): 97.37% | Percent of insulin main peak (140 mM NaCl, pH 7.2, 1 month at 2-8° C.): 96.62% | Percent of insulin main peak (140 mM NaCl, pH 7.2, 3 months at 2-8° C.): 96.60% | Percent of insulin main peak (140 mM NaCl, pH 7.2, 9 months at 2-8° C.): 95.49% | Percent of insulin main peak (140 mM NaCl, pH 7.4, 0 months at 2-8° C.): 97.64% | Percent of insulin main peak (140 mM NaCl, pH 7.4, 0.25 months at 2-8° C.): 97.57% | Percent of insulin main peak (140 mM NaCl, pH 7.4, 0.5 months at 2-8° C.): 97.33% | Percent of insulin main peak (140 mM NaCl, pH 7.4, 1 month at 2-8° C.): 97.23% | Percent of insulin main peak (140 mM NaCl, pH 7.4, 3 months at 2-8° C.): 97.38% | Percent of insulin main peak (140 mM NaCl, pH 7.4, 5 months at 2-8° C.): 97.73% | Percent of insulin main peak (140 mM NaCl, pH 7.4, 9 months at 2-8° C.): 96.10% | Percent of insulin main peak (140 mM NaCl, pH 7.6, 0 months at 2-8° C.): 97.64% | Percent of insulin main peak (140 mM NaCl, pH 7.6, 0.25 months at 2-8° C.): 97.61% | Percent of insulin main peak (140 mM NaCl, pH 7.6, 0.5 months at 2-8° C.): 97.41% | Percent of insulin main peak (140 mM NaCl, pH 7.6, 1 month at 2-8° C.): 97.51% | Percent of insulin main peak (140 mM NaCl, pH 7.6, 3 months at 2-8° C.): 97.35% | Percent of insulin main peak (140 mM NaCl, pH 7.6, 5 months at 2-8° C.): 97.56% | Percent of insulin main peak (140 mM NaCl, pH 7.6, 9 months at 2-8° C.): 97.07% | insulin main peak percentage (regular insulin/rHuPH20, long term storage at 2-8° C.): about 97%
